The DeepSol protein solubility set

Test: soluble on expression in E. coli; label from the status in PepcDB or PDB records

Row | Sequence | soluble on expression in E. coli
1 | MRKYAAIALCTSAILAGCNTSNVSQEPKKEKKVQEVAIQKEALQEQGKISYTPITHESTNTSIHITDLKDSLNEVQYKIWRTADGKERAKSFSSKEKEKQFTIPFDIKEFEGKRGEFQIEATGMKEDGKTIPLTKSIITFEQKVPVLMYHAIDDYHGQGIKDLFVSPANFEAQMKHLKDNGYTLLTFERWGDINKVNKPIFVTFDDGMKNNMNAFRVLQKLKDDTFKPAATEYMIVDNVDVEGALSTSEIKEMVDSGIFSVQSHTATHADLPKITNYEEELKGSKEKLEKITGKPVIAIAYPFGHVDDKVVTETKKYYQFATTTKPGQFITKGEPDELLKMKRVRIHHTTTVEQFASSIK | not soluble
2 | MRKYRLSEEQRAFSYQEDGTKKSVLLRQIIAISDFNDVIAGTAGGWIDRETVLAQEGNCWIYDQNAIAFGGTVISGNTRITGTSVLWGEVYATDNVWIDNSEISQGAYISDSVTIHDSLVYVQCRIFGHALIDQHSMIVAAQGLTPDHQLLLQIYDRARVSASRIVHQAQIYGDAVVRYAFIEHRAEVFDFASVEGNEENNVWLCDCAKVYGHAQVKAGIEEDAIPTIHYSSQVAEYAIVEGNCVLKHHVLIGGNAVVRGGPILLDEHVVIQGESRITGAVIIENHVELTDHAVVEAFDGDTVHVRGPKVINGEERITRTPLAGLLLEHHHHHH | not soluble
3 | MRLDYALFSQHLVNSREKAKALVLKNQVLVNKMVVSKPSFIVKENDKIELIAEKLFVSRAGEKLGAFLETHFVDFKGKVVLDVGASKGGFSQVALLKGAKRVLCVDVGKMQLDESLKQDKRIECYEECDIRGFKTPETIDLALCDVSFISLYYILEAILPLSDEFLTLFKPQFEVGRGIKRNKKGVVVDKEAILNALENFKNHLKTKDFQILKIQESLVKGKNGNVEFFIHFKRA | not soluble
4 | MRLEKFIHLLGERGFDGALISPGTNLYYLTGLRLHEVGERLAILAVSAEGDYRFLAPSLYENVVNNFPATFWHDGENPYAKLREILEELGISKGRILIEDTMRADWLIGIMKLGKFTFQPLSSLIKELRMIKDKEEVKMMEHASRIADKVFEEILTWDLIGMKERELALKIELLIRELSDGIAFEPIVASGENAANPHHEPGERKIRKGDIIILDYGARWKGYCSDITRTIGLGELDERLVKIYEVVKDAQESAFKAVREGIKAKDVDSRAREVISKAGYGEYFIHRTGHGLGLDVHEEPYIGPDGEVILKNGMTFTIEPGIYVPGLGGVRIEDDIVVDEGKGRRLTKAERELIIL | soluble
5 | MRLFIVQAMFTEYRPTHGYDEYFCREQSAPRADLEPLLSSLGAMGLAELNRSHASASNLLRRLGATFRLNGSGLHGGERILPFDPLPRLIHRQEWSVLERGLVQRLEAIDQFLADVYGPQRILNDGVIPREDVESSQGWRPQMQDIAVPLNRWCHISGLDLIRDGDGTWRVLEDNLRCPSGVAYFLENRRVMKRLFPSLFQGRTVQPIDDYPSHLLRTLQDLAPWSDAPRVVLLTPGVFNSAYFEHSYLAQQMGIALVEGRDLICEDGRVWMRSTAGREPVDVIYRRIDDDFLDPNVFRRDSMLGVPGLIDAMRSGRVAIANAPGSGVADDKLIYAYVPAMIRYYLNEEPIIDNVPTYLCSRDDDRRYVLEHLNELVVKSVAEAGGYGMLIGPHASSEEIESFAVKIKAHPRNFIAQPTLQLSTVPSLSEGELYPCHVDLRPYVLRGKSDWVSPGGLTRVALKRGSLVVNSSQGGGCKDTWVVSDSAVTAGNQELVPC | not soluble
6 | MRLRLALFSSLLAATFAITGCDQSSETPDNAATISIEHAQGTTLVPLNPQKVVILNPSVLDNADALHIKVAGVPQTSTHLPAFLSKYSGPEYMNTGTLFEPDYEALSQAKPDLIIAGGRAQDAYNKLSAIAPTIALDVDTQHFTQSLTQRTEQLASIFGKEEEAKTLLGNFSSQVNAIKQKSANAGSAMVLMISGGKMSAYTPGSRFGFIFDELGFTPAATFAESGRHGNVVTSEFILNANPDWLFVLDRDNAIGRTEGQSAQQVLDNPLIHKTKAWQNDRIVYLDSASLYIAGGVQSYTQLMNKVSAILDKPVSEQ | not soluble
7 | MRLTEGIVVDSVLTFGKLRFSALRREVRKQNEDGTVSNEVKERTYNLKSSAQGRMIQVSIPANVPLREFAYDAEVELVNPIVDTVANYVFREGTTVNWFIKADDLVLKRQPNQGNSTNQIEGKK | not soluble
8 | MRLVEIGRFGAPYALKGGLRFRGEPVVLHLERVYVEGHGWRAIEDLYRVGEELVVHLAGVTDRTLAEALVGLRVYAEVADLPPLEEGRYYYFALIGLPVYVEGRQVGEVVDILDAGAQDVLIIRGVGERLRDRAERLVPLQAPYVRVEEGGIHVDPIPGLFDLEHHHHHH | not soluble
9 | MRMRLMLLGGGNALGQALIRLGAEEDIGFLAPRPPQDGWDVASLTQLLDDTRPDALINLAYYFDWFQAETVSAARLTHQERSVERLAELCQHHNITLVQPSSYRVFDGSRATAYSEKDEPVPLGLRGQALWRIEQSVRATCPQHVLVRFGWLLDDSADGVLGRFLSRAKEPGELLLADDRRGNPTPVDDAARVIISIVKQLDCEAPLWGTYHYAGHEATTPLALGQAVLTEARLLHPLAIESPTAQAHAARPDAAEEPQHAVLACKKILHTFGIKPRAWRAGLPSLLDRYYRHV | not soluble
10 | MRMSKMARKDPTIEFCQLGLDTFETKYITMFGMLVSCSFDKPAFISFVFSDFTKNDIVQNYLYDRYLIDYENKLELNEGFKAIMYKNQFETFDSKLRKIFNNGLRDLQNGRDENLSQYGIVCKMNIKVKMYNGKLNAIVRECEPVPHSQISSIASPSQCEHLRLFYQRAFKRIGESAISRYFEEYRRFFPIHRNGSHLA | soluble
11 | MRNERAAKLVVIGGGTGLPVLLRGLKQHELDLTAIVTVADDGGSSGRLRDELHIPPPGDVRNVLAALSDVEPLIVELFQHRFQNGNGLSGHSLGNLILAALTSITGDFVKAIREMSKVLNVRGQVLPAANKSVVLHAEMEDGSIVSGESKIPSAGKKIKRVFLTPEDIEPLPETVDAIRRADLIVIGPGSLYTSILPNLLVPKIGQEVCKAKAKKVYICNIMTQAGETPHYTVSDHVEALHAHLGGPFLDAVIINSGAIPEAIRRRYEAERAEPVRDDSSGLSLQVIRDDIVTYEDGVIRHNTAKVAALLLGLLPHR | not soluble
12 | MRNETLVSIIVPVYNSAQYLRKCIDSILAQSYTEFELLLINDGSEDHSGLICDDYAQSDNRIQVFHQENAGVSAARNLGLEKHTGEHFLFIDSDDYIQERYLEELMKYASCDFVQCSCCSEPVGNDYLFVDGNFEGSDEIKQCLLKYIYPEFTVPFGRLYKSSIQRKNKLFFDTYLYSGEDTLWVSQYLLCVHSLRVSSYIGYIYVHHVGEHLSQKSISYEHLEYTLHKLLISYSDLEKRYDFDLTGVRYSVIIYFFHRYIVYIANRNYTEIRKELEKSCANPLIKGVFYDKKYLLKGKKMKLFNWLVLHDMYSVLALYVKRWKRYL | not soluble
13 | MRNIMEQYTEKPEILMLTQQSLQSENFKEMLSKNTETKITIIDAKNPSYHELIPDRYFLLVDFSVDTPSDTLVYLKDSNKVLGTIMLNLGYDLDTEELASWPHVKGIFGPLDSMEKVCRGLGAIVKGDNWLSRRLLDQLVNYYKGKESNNVSEP | not soluble
14 | MRNKADNKKRNFLTHSEIESLLKAANTGPHATRNYCLILLCFIHGFRASEICRLRISDIDLKAKCIYIHRLKKGFSTTHPLLNKEVQALKNWLSIRTSYPHAESEWVFLSRKGNPLSRQQFYHIISTSGGNAGLSLEIHPHMLRYSCGFALANMGIDTRLI | not soluble
15 | MRNKDLEPHSFELWLNAAKTNLDKYEMALIITATLGLRRGEVMGLRNESIKISHDQINDADVAQISIDMQRNTNELNGGPLKTKSSYRTIWAFGKTVDHLKYAMITADNLRQRNNIQAEKHWLWLNNDGNPLHPTHLNRLMRRVSNRSGVEVYPHLLRHYFATQAIAANKPQIDVMHYLGHKNLQMTADYTRSTKAASLNVFNSIDKFLLEHHHHHH | not soluble
16 | MRNQFDLELHELEQSFLGLGQLVLETASKALLALASKDKEMAELIINKDHAINQGQSAIELTCARLLALQQPQVSDLRFVISIMSSCSDLERMGDHMAGIAKAVLQLKENQLAPDEEQLHQMGKLSLSMLADLLVAFPLHQASKAISIAQKDEQIDQYYYALSKEIIGLMKDQETSIPNGTQYLYIIGHLERFADYIANICERLVYLETGELVDLN | soluble
17 | MRNSTDYSPLYRSFIGFDHLASLIDKASQPGKQSSYPPYNIELLAENQYRITMAVAGFREEDIDIESKDNGLIIVGTKQPPANSTQESEATTRHFLHQGIAERNFERKFQLGEHVKVIGAFMENGLLHVDLEREIPEALKSRKIAINGKSLLNGNS | not soluble
18 | MRPISNLNTSAATYIPPQQLPSSCLETLTLLVQMNNYIKRDADYSTGMAVAPLVPEEVHLLAAAMTTELHRHQFQPVVSANDLQLPEPFTFDVAGFTITFTKTQEHDNTGNLMKIAVSKSGVCTSTNITLELFHSIVTTLMSRSQYGTFDLWSVRPILTDESQNRVHEAARYSPAQQYGREETHFTNNGMREFGNMSPLAWRNDVELQQSCNTSNIPPNAANDDINNTRQTIEDQPEADEPQQYVKLTVDDMRKWAAMDQQARNALQGVSGWCTRNHFNIKNARNYLTDHGLNYAGQVKVNRPHEYAKFTLEHIRQWAALNKHVRKPVGYLEKWCKERNLAPTTARNYLKNDGLTALGELKLTGPQKWVTFTFGDIVQWANMTQEERNSAGGAEKWSKKRGFQWSTARSYLKSSGVTKQGARKLAWLKNSGNMSNPFYLAQPTSRRT | not soluble
19 | MRQGFPYARPGQVIGLFGGSFDPPHAGHVHVTREALKMFGLDRVWWLVTPGNPLKAHGPAPLDRRMEAARAMMRHPRVDVTDIEAHLGTRVTADTIAALRRIYPRVRFVWLMGADNLAQLHRWKDWRQIIETVPVGVLARPGDRISARMSPAARAYAPYRIDGQARHLLGRAEAPAWCFVNVPMVDVSSTRIRAAGGWSAAQQGRGQTGTQDQ | not soluble
20 | MRQSTLHTRLSTGPGGSMRSSIEIFNIRTRKMRVVWQTPELFEAPNWSPDGKYLLLNSEGLLYRLSLAGDPSPEKVDTGFATICNNDHGISPDGALYAISDKVEFGKSAIYLLPSTGGTPRLMTKNLPSYWHGWSPDGKSFTYCGIRDQVFDIYSMDIDSGVETRLTHGEGRNDGPDYSPDGRWIYFNSSRTGQMQIWRVRVDGSSVERITDSAYGDWFPHPSPSGDKVVFVSYDADVFDHPRDLDVRVQLMDMDGGNVETLFDLFGGQGTMNSPNWSPDGDEFAYVRYFPVE | soluble
